The target of this assay is pooled human IgG (human). The assay can be described thus: cell-based or functional assay.

Residue numbers refer to the chain shown, from its start.

B1: VRT-58 (Fc fusion)
chain: VTSVWTKGVTPPTDFIKGEDVFHAPYKAGQGWYDITKTFNGKDNLLCGAATAGNMLHWWFDQNKEYIEAYLKKHPEKQKIIFNNQELFDLKAAINTKGSQKNSELFNYFRDKAFPNLSARRLGVFPDLVLDMFINGYYLNVTKTQTTDVNRTYQEKDKRGGIFDAVFTRGVQSKLLTSRHDLKNKGLKEISDLIKQELTEGKALGLSHTYANVRINHVINLWGADFDSDGNLKAIYVTDSDSNASIGMKKYFVGVNSAGKVAISAKEIKEDNIGAQVLGLFTLSTGQDIWNQTNDKTHTCPPCPAPEAAGAPSVFLFPPKPKDTLMISRTPEVTCVVVDVSHEDPEVKFNWYVDGVEVHNAKTKPREEQQNSTYRVVSVLTVLHQDWLNGKEYKCKVSNKALKAPIEKTISKAKGQPREPQVYTLPPSRDELTKNQVSLTCLVKGFYPSDIAVEWESNGQPENNYKTTPPVLDSDGSFFLYSKLTVDKSRWQQGNVFSCSVMHEALHNHYTQKSLSLSPG
Turning to B1, the Enzyme Activity Endpoint Assay, Fab′2 is 0 ng/µL; the Enzyme Activity Endpoint Assay, Fc turned out to be 191 ng/µL; the Enzyme Activity Endpoint Assay, IgG came to 527 ng/µL; the Enzyme Activity Endpoint Assay, scIgG was 236 ng/µL.

B2: VRT-59 (Fc fusion)
chain: B1 chain with T13A, I16T, K17Q, K27V, G29N
B2 returned an Enzyme Activity Endpoint Assay, Fab′2 of 0 ng/µL; an Enzyme Activity Endpoint Assay, Fc of 157 ng/µL; an Enzyme Activity Endpoint Assay, IgG of 726 ng/µL; an Enzyme Activity Endpoint Assay, scIgG of 107 ng/µL.

B3: VRT-54 (Fc fusion)
chain: VTSVWTKGVTPPTDFIKGEDVFHAPYKAGQGWYDITKTFNGKDDLLCGAATAGNMLHWWFDQNKEYIEAYLKKHPEKQKIMFGDQELLDVRKAINTKGSQKNSELFNYFRDKAFPNLSARRLGVMPDLVLDMFINGYYLNVTKTQTTDVNRTYQEKDKRGGIFDAVFTRGDQSKLLTSRHDFKEKGLKEISDLIKQELTEGKALGLSHTYANVRINHVINLWGADFDSDGNLKAIYVTDSDSNASIGMKKYFVGVNSAGKVAISAKEIKEDNIGAQVLGLFTLSTGQDIWNQTNDKTHTCPPCPAPEAAGAPSVFLFPPKPKDTLMISRTPEVTCVVVDVSHEDPEVKFNWYVDGVEVHNAKTKPREEQQNSTYRVVSVLTVLHQDWLNGKEYKCKVSNKALKAPIEKTISKAKGQPREPQVYTLPPSRDELTKNQVSLTCLVKGFYPSDIAVEWESNGQPENNYKTTPPVLDSDGSFFLYSKLTVDKSRWQQGNVFSCSVMHEALHNHYTQKSLSLSPG
B3 registered an Enzyme Activity Endpoint Assay, Fab′2 of 0 ng/µL; an Enzyme Activity Endpoint Assay, Fc of 129 ng/µL; an Enzyme Activity Endpoint Assay, IgG of 672 ng/µL; an Enzyme Activity Endpoint Assay, scIgG of 150 ng/µL.

B4: VRT-55 (Fc fusion)
chain: B3 chain with F182L, E184N
The molecule B4 registered an Enzyme Activity Endpoint Assay, Fab′2 of 0 ng/µL; an Enzyme Activity Endpoint Assay, Fc of 120 ng/µL; an Enzyme Activity Endpoint Assay, IgG of 734 ng/µL; an Enzyme Activity Endpoint Assay, scIgG of 109 ng/µL.

B5: VRT-56 (Fc fusion)
chain: B3 chain with T13A, I16T, K17Q, K27V, G29N, F182L, E184N
On to B5, for which the Enzyme Activity Endpoint Assay, Fab′2 stood at 0 ng/µL; the Enzyme Activity Endpoint Assay, Fc worked out at 200 ng/µL; the Enzyme Activity Endpoint Assay, IgG is 742 ng/µL; the Enzyme Activity Endpoint Assay, scIgG was 240 ng/µL.

B6: VRT-57 (Fc fusion)
chain: B1 chain with L182F, N184E
Turning to B6, the Enzyme Activity Endpoint Assay, Fab′2 is 0 ng/µL; the Enzyme Activity Endpoint Assay, Fc was 97 ng/µL; the Enzyme Activity Endpoint Assay, IgG was determined as 903 ng/µL; the Enzyme Activity Endpoint Assay, scIgG stood at 27 ng/µL.
